The target in assay [1] is T1, CAL (CFTR-associated ligand) PDZ (Homo sapiens, UniProt Q9HD26). The experiment in a line: SPR. In general terms: In SPR one partner is held on a chip, and binding of the other changes the refractive index at the surface.
Assay [2] deals with T1, CAL (CFTR-associated ligand) PDZ. Briefly: ITC.

In general, Kd refers to the free concentration of one partner at which half of the binding sites on the other are occupied at equilibrium, for simple one-to-one binding. A high value points to lower affinity.

Ends that are not written are not given here.

As to ANSRWK(Ac)TSII [iCAL36 P-4 Ac-K], the dissociation constant (Kd) in assay [1] is 64.6 µM; in assay [2], 49.4 µM. With ANSRWPTSKI [iCAL36 P-1 Tfa-K], the results for the Kd in assay [1] and in assay [2] were 22.3 µM and 34.5 µM, respectively. In the case of ANSRWPTSK(Ac)I [iCAL36 P-1 Ac-K], the Kd in assay [1] was 39.5 µM; in assay [2], 26.4 µM.

In the case of ANSRWPTSKI [iCAL36 P-1 FB-K], the Kd in assay [1] turned out to be 27.9 µM; in assay [2], 12.8 µM. Taken in the same sequence, the figures for ANSRWPK(Ac)SII [iCAL36 P-3 Ac-K] were 122 µM and 91.9 µM. As for ANSRK(Ac)PTSII [iCAL36 P-5 Ac-K], in assay [1], the Kd was found to be 298 µM. Consider ANSRWPTSKI [iCAL36 P-1 BB-K], for which the Kd is 20 µM in assay [1] and 20.7 µM in assay [2].

The record behind these values is article PMC4138078 (2014).
